Results: US20140087995A1 (published 2014)
One block for each binder: values may come before it. Numbered stars: 1 amine (or outer) side, 2 acyl side, 3 side chain; on linkers, the order of the positions; unused ones are H or OH. Bridge positions count the residues as written; N and C are the ends. Square brackets hold non-standard residues; d marks the D form. Side chains are listed from the residue outwards. Ends that are not written are not given here. * marks the point of attachment. C20 diacid = O=C(O)CCCCCCCCCCCCCCCCCCC(=O)*; γGlu = O=C(O)[C@H](CCC(=O)[*:2])N[*:1]; AEEA = NCCOCCOCC(=O)O

Experiments:
[1] = target: T1, human calcitonin receptor (human, UniProt P30988 25-474); assay: ratio IC50 hCTR / IC50 hAmylin-R (reference: human amylin receptor), SPA competition assays
T1 construct: whole, on cells; Assay used cell membranes, not intact cells; also called hCTR; hCT
T1 sequence (looked up): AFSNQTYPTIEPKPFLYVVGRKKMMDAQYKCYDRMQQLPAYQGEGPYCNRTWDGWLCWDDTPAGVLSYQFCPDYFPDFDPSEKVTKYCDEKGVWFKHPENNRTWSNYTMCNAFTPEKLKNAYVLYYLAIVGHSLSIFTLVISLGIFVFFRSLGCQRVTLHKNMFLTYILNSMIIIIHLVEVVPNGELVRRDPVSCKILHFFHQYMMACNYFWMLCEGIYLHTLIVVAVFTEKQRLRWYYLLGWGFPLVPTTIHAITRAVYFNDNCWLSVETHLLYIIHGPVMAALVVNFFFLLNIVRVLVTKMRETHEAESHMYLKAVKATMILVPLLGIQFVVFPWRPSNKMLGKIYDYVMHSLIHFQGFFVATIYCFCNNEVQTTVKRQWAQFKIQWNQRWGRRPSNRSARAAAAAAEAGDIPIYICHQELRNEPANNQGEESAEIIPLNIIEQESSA
Procedure: The resulting pellet was resuspended, homogenized and centrifuged (20.000 rpm, 15 min) in a buffer containing 20 mM Na-HEPES and 0.1 mM EDTA (pH 7.4, buffer 2). The resulting pellet was resuspended in buffer 2 and protein concentration was measured (BCA protein Assay, Pierce). The homogenate was kept cold during the whole procedure. The membranes were kept at −80° C. until use. The assay was performed in a 384 well Optiplate (PerkinElmer) in a total volume of 40 ul. Membranes were mixed with SPA beads. Final concentration of membranes 35 ng/μL final and SPA beads was 0.05 mg/well. Test-compounds were dissolved in DMSO and further diluted in assay buffer (50 mM Hepes, pH 7.4, 1 mM CaCl2, 5 mM MgCl₂, 0.1% OA and 0.02% Tween20). […] The final mixture was incubated with shaking at 400 rpm for 120 min at 25° C. prior to centrifugation (1500 rpm, 10 min). Samples were analyzed on TopCounter™ (Packard). The IC₅₀ was calculated using (one site binding competition analysis) GraphPad Prism5 as a measure of receptor affinity.
Membranes were prepared in the following way; the cells were rinsed with PBS and incubated with Versene for approximately 5 min before harvesting. The cells were flushed with PBS and the cell-suspension was centrifuged for 5 min at 1000 rpm. Cells were homogenized (Ultrathurrax) in a buffer containing 20 mM Na-HEPES and 10 mM EDTA (pH 7.4) and centrifuged at 20.000 rpm for 15 min. The resulting pellet was resuspended, homogenized and centrifuged (20.000 rpm, 15 min) in a buffer containing 20 mM Na-HEPES and 0.1 mM EDTA (pH 7.4, buffer 2). The resulting pellet was resuspended in buffer 2 and protein concentration was measured (BCA protein Assay, Pierce). The homogenate was kept cold during the whole procedure. The membranes were kept at −80° C. until use. Assay was performed in a 384 well Optiplate (PerkinElmer) in a total volume of 40 ul. Membranes were mixed with SPA beads.

[2] = target: T1, human calcitonin receptor; assay: SPA competition with 125I-calcitonin on membranes of BHK cells with human calcitonin receptor (Assay VII)
Procedure: Membranes were prepared in the following way; the cells were rinsed with PBS and incubated with Versene for approximately 5 min before harvesting. The cells were flushed with PBS and the cell-suspension was centrifuged for 5 min at 1000 rpm. Cells were homogenized (Ultrathurrax) in a buffer containing 20 mM Na-HEPES and 10 mM EDTA (pH 7.4) and centrifuged at 20.000 rpm for 15 min. The resulting pellet was resuspended, homogenized and centrifuged (20.000 rpm, 15 min) in a buffer containing 20 mM Na-HEPES and 0.1 mM EDTA (pH 7.4, buffer 2). The resulting pellet was resuspended in buffer 2 and protein concentration was measured (BCA protein Assay, Pierce). The homogenate was kept cold during the whole procedure. The membranes were kept at −80° C. until use. Assay was performed in a 384 well Optiplate (PerkinElmer) in a total volume of 40 ul. Membranes were mixed with SPA beads. Final concentration of membranes 35 ng/μL final and Final concentration of SPA beads was 0.05 mg/well. Test-compounds were dissolved in DMSO and further diluted in assay buffer (50 mM Hepes, pH 7.4, 1 mM CaCl2, 5 mM MgCl₂, 0.1% OA and 0.02% Tween20). […] The final mixture was incubated for 120 min with shaking at 400 rpm at 25° C. prior to centrifugation (1500 rpm, 10 min). Samples were analyzed on TopCounter™ (Packard). The […] was calculated using (one site binding competition analysis) GraphPad Prism5 as a measure of receptor affinity.

[3] = target: T2, human amylin receptor (amylin 3(a) receptor: human calcitonin receptor with RAMP-3) (human, UniProt P30988 25-474; O60896 24-148); assay: SPA competition with 125I-rat amylin on membranes of BHK cells with human calcitonin receptor and RAMP-3 (Assay V)
T2 construct: whole, on cells; Assay used cell membranes of the Amylin 3(a)/CRE-luc BHK cells, not intact cells; also called hAmylin-R; hAmylinR
T2 sequence (looked up) 1: T1 sequence (looked up)
T2 sequence (looked up) 2: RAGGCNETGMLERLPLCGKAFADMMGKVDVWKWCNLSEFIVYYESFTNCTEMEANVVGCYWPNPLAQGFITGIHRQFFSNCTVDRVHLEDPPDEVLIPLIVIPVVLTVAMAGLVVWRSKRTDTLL
Procedure: The binding assay was performed using scintillation proximity assay (SPA) beads (RPNQ0001) from PerkinElmer and cell membranes from the Amylin 3(a)/CRE-luc cells (as described in Assay (II)) were used. Membranes were prepared in the following way; the cells were rinsed with PBS and incubated with Versene for approximately 5 min before harvesting. The cells were flushed with PBS and the cell-suspension was centrifuged for 5 min at 1000 rpm. Cells were homogenized (ultrathurrax) in a buffer containing 20 mM Na-HEPES and 10 mM EDTA (pH 7.4) and centrifuged at 20.000 rpm for 15 min. The resulting pellet was resuspended, homogenized and centrifuged (20.000 rpm, 15 min) in a buffer containing 20 mM Na-HEPES and 0.1 mM EDTA (pH 7.4, buffer 2). The resulting pellet was resuspended in buffer 2 and protein concentration was measured (BCA protein Assay, Pierce). The homogenate was kept cold during the whole procedure. The membranes were kept at −80° C. until use. The assay was performed in a 384 well Optiplate (PerkinElmer) in a total volume of 40 ul. Membranes were mixed with SPA beads. Final concentration of membranes 35 ng/μL final and SPA beads was 0.05 mg/well. Test-compounds were dissolved in DMSO and further diluted in assay buffer (50 mM Hepes, pH 7.4, 1 mM CaCl2, 5 mM MgCl₂, 0.1% OA and 0.02% Tween20). […] The final mixture was incubated with shaking at 400 rpm for 120 min at 25° C. prior to centrifugation (1500 rpm, 10 min). Samples were analyzed on TopCounter™ (Packard). The IC₅₀ was calculated using (one site binding competition analysis) GraphPad Prism5 as a measure of receptor affinity.

- Ratio hCT/hAmylin binding [1]: 74.1
- IC50 [2]: 6.74 nM
- IC50 [3]: 0.091 nM
B1: N^ε1-[2-[2-[2-[[2-[2-[2-[[(4S)-4-carboxy-4-(19-carboxynonadecanoylamino)butanoyl]amino]ethoxy]ethoxy]acetyl]amino]ethoxy]ethoxy]acetyl]-[Arg17,Pro21,Pro27,Pro34 … (peptide)
peptide: K([AEEA-AEEA-γGlu-C20 diacid])CNTATCATQRLANFLRHSSPNFGAIPSSTNVGPNTY-NH2
modifications: disulfide 2-7; N-terminus assumed
SMILES: CC[C@H](C)[C@H](NC(=O)[C@H](C)NC(=O)CNC(=O)[C@H](Cc1ccccc1)NC(=O)[C@H](CC(N)=O)NC(=O)[C@@H]1CCCN1C(=O)[C@H](CO)NC(=O)[C@H](CO)NC(=O)[C@H](Cc1c[nH]cn1)NC(=O)[C@H](CCCNC(=N)N)NC(=O)[C@H](CC(C)C)NC(=O)[C@H](Cc1ccccc1)NC(=O)[C@H](CC(N)=O)NC(=O)[C@H](C)NC(=O)[C@H](CC(C)C)NC(=O)[C@H](CCCNC(=N)N)NC(=O)[C@H](CCC(N)=O)NC(=O)[C@@H](NC(=O)[C@H](C)NC(=O)[C@@H]1CSSC[C@H](NC(=O)[C@@H](N)CCCCNC(=O)COCCOCCNC(=O)COCCOCCNC(=O)CC[C@H](NC(=O)CCCCCCCCCCCCCCCCCCC(=O)O)C(=O)O)C(=O)N[C@@H](CC(N)=O)C(=O)N[C@@H]([C@@H](C)O)C(=O)N[C@@H](C)C(=O)N[C@@H]([C@@H](C)O)C(=O)N1)[C@@H](C)O)C(=O)N1CCC[C@H]1C(=O)N[C@@H](CO)C(=O)N[C@@H](CO)C(=O)N[C@H](C(=O)N[C@@H](CC(N)=O)C(=O)N[C@H](C(=O)NCC(=O)N1CCC[C@H]1C(=O)N[C@@H](CC(N)=O)C(=O)N[C@H](C(=O)N[C@@H](Cc1ccc(O)cc1)C(N)=O)[C@@H](C)O)C(C)C)[C@@H](C)O
notes: also called compound 98

- IC50 [2]: 112 nM
- IC50 [3]: 0.365 nM
B2: N^ε1-[(4S)-4-carboxy-4-[[(4S)-4-carboxy-4-(19-carboxynonadecanoylamino)butanoyl]amino]butanoyl]-[D-Asp14,Arg17,Pro21,Pro27,Arg35]-h-amylin (peptide)
peptide: K([γGlu-γGlu-C20 diacid])CNTATCATQRLA[dD]FLRHSSPNFGAIPSSTNVGSRTY-NH2
modifications: disulfide 2-7; N-terminus assumed
SMILES: CC[C@H](C)[C@H](NC(=O)[C@H](C)NC(=O)CNC(=O)[C@H](Cc1ccccc1)NC(=O)[C@H](CC(N)=O)NC(=O)[C@@H]1CCCN1C(=O)[C@H](CO)NC(=O)[C@H](CO)NC(=O)[C@H](Cc1c[nH]cn1)NC(=O)[C@H](CCCNC(=N)N)NC(=O)[C@H](CC(C)C)NC(=O)[C@H](Cc1ccccc1)NC(=O)[C@@H](CC(=O)O)NC(=O)[C@H](C)NC(=O)[C@H](CC(C)C)NC(=O)[C@H](CCCNC(=N)N)NC(=O)[C@H](CCC(N)=O)NC(=O)[C@@H](NC(=O)[C@H](C)NC(=O)[C@@H]1CSSC[C@H](NC(=O)[C@@H](N)CCCCNC(=O)CC[C@H](NC(=O)CC[C@H](NC(=O)CCCCCCCCCCCCCCCCCCC(=O)O)C(=O)O)C(=O)O)C(=O)N[C@@H](CC(N)=O)C(=O)N[C@@H]([C@@H](C)O)C(=O)N[C@@H](C)C(=O)N[C@@H]([C@@H](C)O)C(=O)N1)[C@@H](C)O)C(=O)N1CCC[C@H]1C(=O)N[C@@H](CO)C(=O)N[C@@H](CO)C(=O)N[C@H](C(=O)N[C@@H](CC(N)=O)C(=O)N[C@H](C(=O)NCC(=O)N[C@@H](CO)C(=O)N[C@@H](CCCNC(=N)N)C(=O)N[C@H](C(=O)N[C@@H](Cc1ccc(O)cc1)C(N)=O)[C@@H](C)O)C(C)C)[C@@H](C)O

- Ratio hCT/hAmylin binding [1]: 101
- IC50 [2]: 12 nM
- IC50 [3]: 0.119 nM
B3: N^ε1-[2-[2-[2-(19-carboxynonadecanoylamino)ethoxy]ethoxy]acetyl]-[Arg17,Pro21,Pro27,His34]-h-amylin (peptide)
peptide: K([AEEA-C20 diacid])CNTATCATQRLANFLRHSSPNFGAIPSSTNVGHNTY-NH2
modifications: disulfide 2-7; N-terminus assumed
SMILES: CC[C@H](C)[C@H](NC(=O)[C@H](C)NC(=O)CNC(=O)[C@H](Cc1ccccc1)NC(=O)[C@H](CC(N)=O)NC(=O)[C@@H]1CCCN1C(=O)[C@H](CO)NC(=O)[C@H](CO)NC(=O)[C@H](Cc1c[nH]cn1)NC(=O)[C@H](CCCNC(=N)N)NC(=O)[C@H](CC(C)C)NC(=O)[C@H](Cc1ccccc1)NC(=O)[C@H](CC(N)=O)NC(=O)[C@H](C)NC(=O)[C@H](CC(C)C)NC(=O)[C@H](CCCNC(=N)N)NC(=O)[C@H](CCC(N)=O)NC(=O)[C@@H](NC(=O)[C@H](C)NC(=O)[C@@H]1CSSC[C@H](NC(=O)[C@@H](N)CCCCNC(=O)COCCOCCNC(=O)CCCCCCCCCCCCCCCCCCC(=O)O)C(=O)N[C@@H](CC(N)=O)C(=O)N[C@@H]([C@@H](C)O)C(=O)N[C@@H](C)C(=O)N[C@@H]([C@@H](C)O)C(=O)N1)[C@@H](C)O)C(=O)N1CCC[C@H]1C(=O)N[C@@H](CO)C(=O)N[C@@H](CO)C(=O)N[C@H](C(=O)N[C@@H](CC(N)=O)C(=O)N[C@H](C(=O)NCC(=O)N[C@@H](Cc1c[nH]cn1)C(=O)N[C@@H](CC(N)=O)C(=O)N[C@H](C(=O)N[C@@H](Cc1ccc(O)cc1)C(N)=O)[C@@H](C)O)C(C)C)[C@@H](C)O
notes: also called compound 91
